Literature values, collected in article PMC4467374.

Experiments:
[1] = molecular target: histone H3 K9me3 peptide (Homo sapiens) (UniProt P68431)
[2] = molecular target: histone H3 K4me3/K9me3 peptide (Homo sapiens) (UniProt P68431)

Chain of UHRF1 TTD (Q96T88 124-285): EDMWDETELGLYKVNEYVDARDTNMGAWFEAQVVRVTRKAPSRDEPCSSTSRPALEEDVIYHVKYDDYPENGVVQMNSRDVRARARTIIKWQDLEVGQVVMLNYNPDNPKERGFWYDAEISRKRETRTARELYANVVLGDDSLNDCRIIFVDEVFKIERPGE

Kd [1]: 20 µM
Kd [2]: 90 µM
Substance: UHRF1 TTD (from UniProt Q96T88)
